# Results taken from patent US20130171217A1, “ENZYMATIC PERACID GENERATION FOR USE IN SKIN CARE PRODUCTS” (E I DU PONT DE NEMOURS AND COMPANY, priority 2010, published 2013).
# Changes are numbered by the printed parent chain. Names may count otherwise.
# B1: SEQ ID NO: 337: L29P variant of Pseudomonas fluorescens hydrolase fused to the charged peptide (GK)5-His6 via a flexible linker (protein)
# chain: MSTFVAKDGTQIYFKDWGSGKPVLFSHGWPLDADMWEYQMEYLSSRGYRTIAFDRRGFGRSDQPWTGNDYDTFADDIAQLIEHLDLKEVTLVGFSMGGGDVARYIARHGSARVAGLVLLGAVTPLFGQKPDYPQGVPLDVFARFKTELLKDRAQFISDFNAPFYGINKGQVVSQGVQTQTLQIALLASLKATVDCVTAFAETDFRPDMAKIDVPTLVIHGDGDQIVPFETTGKVAAELIKGAELKVYKDAPHGFAVTHAQQLNEDLLAFLKRGPGSGGAGSPGSAGGPGSGKGKGKGKGKHHHHHH
# B2: SEQ ID NO: 319: acetyl xylan esterase from Lactococcus lactis fused at its C-terminus to hair binding domain HC263 via a flexible linker (protein)
# chain: MTKINNWQDYQGSSLKPEDFDKFWDEKINLVSNHQFEFELIEKNLSSKVVNFYHLWFTAIDGAKIHAQLIVPKNLKEKYPAILQFHGYHCDSGDWVDKIGIVAEGNVVLALDCRGQGGLSQDNIQTMGMTMKGLIVRGIDEGYENLYYVRQFMDLITATKILSEFDFVDETNISAQGASQGGALAVACAALSPLIKKVTATYPFLSDYRKAYELGAEESAFEELPYWFQFKDPLHLREDWFFNQLEYIDIQNLAPRIKAEVIWILGGKDTVVPPITQMAAYNKIQSKKSLYVLPEYGHEYLPKISDWLRENQGPGSGGAGSPGSAGGPGSPSAQSQLPDKHSGLHERAPQRYGPEPEPEPEPIPEPPKEAPVVIEKPKPKPKPKPKPPAHDHKNQKETHQRHAAGSGGGGSPHHHHHH
# B3: SEQ ID NO: 321: acetyl xylan esterase from Mesorhizobium loti fused at its C-terminus to hair binding domain HC263 via a flexible linker (protein)
# chain: MPFPDLIQPELGAYVSSVGMPDDFAQFWTSTIAEARQAGGEVSIVQAQTTLKAVQSFDVTFPGYGGHPIKGWLILPTHHKGRLPLVVQYIGYGGGRGLAHEQLHWAASGFAYFRMDTRGQGSDWSVGETADPVGSTSSIPGFMTRGVLDKNDYYYRRLFTDAVRAIDALLGLDFVDPERIAVCGDSQGGGISLAVGGIDPRVKAVMPDVPFLCDFPRAVQTAVRDPYLEIVRFLAQHREKKAAVFETLNYFDCVNFARRSKAPALFSVALMDEVCPPSTVYGAFNAYAGEKTITEYEFNNHEGGQGYQERQQMTWLSRLFGVGGPGSGGAGSPGSAGGPGSPSAQSQLPDKHSGLHERAPQRYGPEPEPEPEPIPEPPKEAPVVIEKPKPKPKPKPKPPAHDHKNQKETHQRHAAGSGGGGSPHHHHHH
# B4: SEQ ID NO: 335: L29P variant of Pseudomonas fluorescens hydrolase fused to hair binding domain HC1010 via a flexible linker (protein)
# chain: MSTFVAKDGTQIYFKDWGSGKPVLFSHGWPLDADMWEYQMEYLSSRGYRTIAFDRRGFGRSDQPWTGNDYDTFADDIAQLIEHLDLKEVTLVGFSMGGGDVARYIARHGSARVAGLVLLGAVTPLFGQKPDYPQGVPLDVFARFKTELLKDRAQFISDFNAPFYGINKGQVVSQGVQTQTLQIALLASLKATVDCVTAFAETDFRPDMAKIDVPTLVIHGDGDQIVPFETTGKVAAELIKGAELKVYKDAPHGFAVTHAQQLNEDLLAFLKRGPGSGGAGSPGSAGGPGSAQSQLPDKHSGLHERAPQRYGSGTAEIQSSKNPNPHPQRSWTNGSGHNHMQERYTDPQHSPSVNGLGSGHDHKNQKETHQRHAASSHHHHHH
# B5: SEQ ID NO: 317: acetyl xylan esterase from Bacillus pumilus fused at its C-terminus to hair binding domain HC263 via a flexible linker (protein)
# chain: MQLFDLSLEELKKYKPKKTARPDFSDFWKKSLEELRQVEAEPTLESYDYPVKGVKVYRLTYQSFGHSKIEGFYAVPDQTGPHPALVRFHGYNASYDGGIHDIVNWALHGYATFGMLVRGQGGSEDTSVTPGGHALGWMTKGILSKDTYYYRGVYLDAVRALEVIQSFPEVDEHRIGVIGGSQGGALAIAAAALSDIPKVVVADYPYLSNFERAVDVALEQPYLEINSYFRRNSDPKVEEKAFETLSYFDLINLAGWVKQPTLMAIGLIDKITPPSTVFAAYNHLETDKDLKVYRYFGHEFIPAFQTEKLSFLQKHLLLSTGPGSGGAGSPGSAGGPGSPSAQSQLPDKHSGLHERAPQRYGPEPEPEPEPIPEPPKEAPVVIEKPKPKPKPKPKPPAHDHKNQKETHQRHAAGSGGGGSPHHHHHH
# B6: SEQ ID NO: 331: L29P variant of the hydrolase from Pseudomonas fluorescens fused to hair binding domain HC263 via a flexible linker (protein)
# chain: MSTFVAKDGTQIYFKDWGSGKPVLFSHGWPLDADMWEYQMEYLSSRGYRTIAFDRRGFGRSDQPWTGNDYDTFADDIAQLIEHLDLKEVTLVGFSMGGGDVARYIARHGSARVAGLVLLGAVTPLFGQKPDYPQGVPLDVFARFKTELLKDRAQFISDFNAPFYGINKGQVVSQGVQTQTLQIALLASLKATVDCVTAFAETDFRPDMAKIDVPTLVIHGDGDQIVPFETTGKVAAELIKGAELKVYKDAPHGFAVTHAQQLNEDLLAFLKRGPGSGGAGSPGSAGGPGSPSAQSQLPDKHSGLHERAPQRYGPEPEPEPEPIPEPPKEAPVVIEKPKPKPKPKPKPPAHDHKNQKETHQRHAAGSGGGGSPHHHHHH
# B7: SEQ ID NO: 333: L29P variant of Pseudomonas fluorescens hydrolase fused to hair binding domain HC263KtoR via a flexible linker (protein)
# chain: B6 chain with K300R, K328R, K336R, K338R, K340R, K342R, K344R, K346R, K353R, K356R
# B8: SEQ ID NO: 325: S54V variant of Mycobacterium smegmatis aryl esterase fused to hair binding domain HC263KtoR via a flexible linker (protein)
# chain: MAKRILCFGDSLTWGWVPVEDGAPTERFAPDVRWTGVLAQQLGADFEVIEEGLVARTTNIDDPTDPRLNGASYLPSCLATHLPLDLVIIMLGTNDTKAYFRRTPLDIALGMSVLVTQVLTSAGGVGTTYPAPKVLVVSPPPLAPMPHPWFQLIFEGGEQKTTELARVYSALASFMKVPFFDAGSVISTDGVDGIHFTEANNRDLGVALAEQVRSLLGPGSGGAGSPGSAGGPGSPSAQSQLPDRHSGLHERAPQRYGPEPEPEPEPIPEPPREAPVVIERPRPRPRPRPRPPAHDHRNQRETHQRHAAGSGGGGSPHHHHHH
# B9: SEQ ID NO: 327: S54V variant of Mycobacterium smegmatis aryl esterase fused to hair binding domain HC1010 via a flexible linker (protein)
# chain: MAKRILCFGDSLTWGWVPVEDGAPTERFAPDVRWTGVLAQQLGADFEVIEEGLVARTTNIDDPTDPRLNGASYLPSCLATHLPLDLVIIMLGTNDTKAYFRRTPLDIALGMSVLVTQVLTSAGGVGTTYPAPKVLVVSPPPLAPMPHPWFQLIFEGGEQKTTELARVYSALASFMKVPFFDAGSVISTDGVDGIHFTEANNRDLGVALAEQVRSLLGPGSGGAGSPGSAGGPGSAQSQLPDKHSGLHERAPQRYGSGTAEIQSSKNPNPHPQRSWTNGSGHNHMQERYTDPQHSPSVNGLGSGHDHKNQKETHQRHAASSHHHHHH
# B10: SEQ ID NO: 329: S54V variant of Mycobacterium smegmatis aryl esterase fused to the charged peptide (GK)5-His6 via a flexible linker (protein)
# chain: MAKRILCFGDSLTWGWVPVEDGAPTERFAPDVRWTGVLAQQLGADFEVIEEGLVARTTNIDDPTDPRLNGASYLPSCLATHLPLDLVIIMLGTNDTKAYFRRTPLDIALGMSVLVTQVLTSAGGVGTTYPAPKVLVVSPPPLAPMPHPWFQLIFEGGEQKTTELARVYSALASFMKVPFFDAGSVISTDGVDGIHFTEANNRDLGVALAEQVRSLLGPGSGGAGSPGSAGGPGSGKGKGKGKGKHHHHHH
# Test: Perhydrolase activity of targeted hydrolases, ABTS assay
# Type: biochemical
# Method: The ABTS assay was performed as follows: hair samples treated as described above were transferred to new 2-mL microcentrifuge tubes (Eppendorf Protein LoBind; Eppendorf North America, Hauppauge, N.Y.) To each tube was added 480 μL of PAH buffer ([…]), 14 μL of 39% hydrogen peroxide (Sigma 3410), and 6 μL triacetin (Sigma-Aldrich W200700). The perhydrolase reaction was allowed to proceed for 10 minutes at room temperature (˜22-25° C.). The reaction was stopped by diluting aliquots 10×, 100× and 1000× with 10 mM phosphoric acid. For detection 50 μL of 1 M acetic acid, 50 μL of 40 mg/mL potassium iodide, and 50 μL of 4 mM ABTS (2,2′-azino-bis(3-ethylbenzthiazoline-6-sulphonic acid; Sigma, St Louis, Mo.) were added to 50 μL of the above dilutions. Color was allowed to develop for 10 minutes and read in a spectrophotometer at 405 nm. Values from no-enzyme controls were subtracted to yield values attributable only to enzyme activity. A standard curve of OD 405 nm vs PAA concentration in ppm yielded a conversion factor of 8.75, such that an OD 405 nm of 1.0 corresponded to approximately 8.75 ppm PAA. This value was then multiplied by the appropriate dilution to arrive at the PAA concentration in the perhydrolase reaction.
# The perhydrolase activity of the enzymes targeted to hair with a variety of targeting domains produced as described in Example 32 was measured with the ABTS assay.
# [1] = 1 m Na acetate at pH 5.5 instead of triacetin
molecule,measurement,setting,value
B1,Specific perhydrolase activity,[1],2.65 µmol/mg/min
B2,Specific perhydrolase activity,triacetin at pH 7.5,99 µmol/mg/min
B3,Specific perhydrolase activity,triacetin at pH 7.5,34 µmol/mg/min
B4,Specific perhydrolase activity,[1],1.5 µmol/mg/min
B5,Specific perhydrolase activity,triacetin at pH 7.5,40 µmol/mg/min
B6,Specific perhydrolase activity,[1],0.37 µmol/mg/min
B7,Specific perhydrolase activity,[1],1.45 µmol/mg/min
B8,Specific perhydrolase activity,triacetin at pH 7.5,46 µmol/mg/min
B9,Specific perhydrolase activity,triacetin at pH 7.5,20 µmol/mg/min
B10,Specific perhydrolase activity,triacetin at pH 7.5,264 µmol/mg/min
